Data on one protein can be found in article doi:10.1101/2025.11.07.687187 (bioRxiv, 2025).

The data set deals with the molecule itself. In words: cryo-EM structure.

B1: SPATA5 wild-type, C-terminal 3xFLAG (enzyme, human, UniProt Q8NB90 1-893, looked up)
chain: MSSKKNRKRLNQSAENGSSLPSAASSCAEARAPSAGSDFAATSGTLTVTNLLEKVDDKIPKTFQNSLIHLGLNTMKSANICIGRPVLLTSLNGKQEVYTAWPMAGFPGGKVGLSEMAQKNVGVRPGDAIQVQPLVGAVLQAEEMDVALSDKDMEINEEELTGCILRKLDGKIVLPGNFLYCTFYGRPYKLQVLRVKGADGMILGGPQSDSDTDAQRMAFEQSSMETSSLELSLQLSQLDLEDTQIPTSRSTPYKPIDDRITNKASDVLLDVTQSPGDGSGLMLEEVTGLKCNFESAREGNEQLTEEERLLKFSIGAKCNTDTFYFISSTTRVNFTEIDKNSKEQDNQFKVTYDMIGGLSSQLKAIREIIELPLKQPELFKSYGIPAPRGVLLYGPPGTGKTMIARAVANEVGAYVSVINGPEIISKFYGETEAKLRQIFAEATLRHPSIIFIDELDALCPKREGAQNEVEKRVVASLLTLMDGIGSEVSEGQVLVLGATNRPHALDAALRRPGRFDKEIEIGVPNAQDRLDILQKLLRRVPHLLTEAELLQLANSAHGYVGADLKVLCNEAGLCALRRILKKQPNLPDVKVAGLVKITLKDFLQAMNDIRPSAMREIAIDVPNVSWSDIGGLESIKLKLEQAVEWPLKHPESFIRMGIQPPKGVLLYGPPGCSKTMIAKALANESGLNFLAIKGPELMNKYVGESERAVRETFRKARAVAPSIIFFDELDALAVERGSSLGAGNVADRVLAQLLTEMDGIEQLKDVTILAATNRPDRIDKALMRPGRIDRIIYVPLPDAATRREIFKLQFHSMPVSNEVDLDELILQTDAYSGAEIVAVCREAALLALEEDIQANLIMKRHFTQALSTVTPRIPESLRRFYEDYQEKSGLHTL
With B1, the binding result is reported as “binds”.
